Test results: IntAct's records for PubMed 19805276

B1: Stage IV sporulation protein FB (Bacillus subtilis), P26937 (parent)
chain: MNKWLDLILKIHVHPFLWIIAALGLLTGHMKALLCLLLIVLIHELGHAALAVFFSWRIKRVFLLPFGGTVEVEEHGNRPLKEEFAVIIAGPLQHIWLQFAAWMLAEVSVIHQHTFELFTFYNLSILFVNLLPIWPLDGGKLLFLLFSKQLPFQKAHRLNLKTSLCFCLLLGCWVLFVIPLQISAWVLFVFLAVSLFEEYRQRHYIHVRFLLERYYGKNRELEKLLPLTVKAEDKVYHVMAEFKRGCKHPIIIEKSGQKLSQLDENEVLHAYFADKRTNSSMEELLLPY
partner: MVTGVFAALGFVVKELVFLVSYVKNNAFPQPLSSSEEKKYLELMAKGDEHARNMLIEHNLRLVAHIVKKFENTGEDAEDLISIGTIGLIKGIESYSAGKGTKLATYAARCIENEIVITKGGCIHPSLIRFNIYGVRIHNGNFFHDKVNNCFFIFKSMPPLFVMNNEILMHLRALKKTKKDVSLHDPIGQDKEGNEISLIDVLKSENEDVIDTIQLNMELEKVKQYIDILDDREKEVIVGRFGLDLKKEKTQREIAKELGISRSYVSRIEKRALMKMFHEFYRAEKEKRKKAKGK

Variants of: B1
Details: with rpsk_bacsu sigK

Question: With E44Q as the variant, how does the “effect of a mutation on the interaction” value read?
Answer: Its value is “disrupting interaction”.
